Measurements as given in IntAct's records for PubMed 21481780.

B1: Phosphotransferase RcsD (Escherichia coli (strain K12)), P39838 (parent)
chain: MRQKETTATTRFSLLPGSITRFFLLLIIVLLVTMGVMVQSAVNAWLKDKSYQIVDITHAIQKRVDNWRYVTWQIYDNIAATTSPSSGEGLQETRLKQDVYYLEKPRRKTEALIFGSHDNSTLEMTQRMSTYLDTLWGAENVPWSMYYLNGQDNSLVLISTLPLKDLTSGFKESTVSDIVDSRRAEMLQQANALDERESFSNMRRLAWQNGHYFTLRTTFNQPGHLATVVAFDLPINDLIPPGMPLDSFRLEPDATATGNNDNEKEGTDSVSIHFNSTKIEISSALNSTDMRLVWQVPYGTLLLDTLQNILLPLLLNIGLLALALFGYTTFRHFSSRSTENVPSTAVNNELRILRAINEEIVSLLPLGLLVHDQESNRTVISNKIADHLLPHLNLQNITTMAEQHQGIIQATINNELYEIRMFRSQVAPRTQIFIIRDQDREVLVNKKLKQAQRLYEKNQQGRMIFMKNIGDALKEPAQSLAESAAKLNAPESKQLANQADVLVRLVDEIQLANMLADDSWKSETVLFSVQDLIDEVVPSVLPAIKRKGLQLLINNHLKAHDMRRGDRDALRRILLLLMQYAVTSTQLGKITLEVDQDESSEDRLTFRILDTGEGVSIHEMDNLHFPFINQTQNDRYGKADPLAFWLSDQLARKLGGHLNIKTRDGLGTRYSVHIKMLAADPEVEEEEERLLDDVCVMVDVTSAEIRNIVTRQLENWGATCITPDERLISQDYDIFLTDNPSNLTASGLLLSDDESGVREIGPGQLCVNFNMSNAMQEAVLQLIEVQLAQEEVTESPLGGDENAQLHASGYYALFVDTVPDDVKRLYTEAATSDFAALAQTAHRLKGVFAMLNLVPGKQLCETLEHLIREKDVPGIEKYISDIDSYVKSLL
partner: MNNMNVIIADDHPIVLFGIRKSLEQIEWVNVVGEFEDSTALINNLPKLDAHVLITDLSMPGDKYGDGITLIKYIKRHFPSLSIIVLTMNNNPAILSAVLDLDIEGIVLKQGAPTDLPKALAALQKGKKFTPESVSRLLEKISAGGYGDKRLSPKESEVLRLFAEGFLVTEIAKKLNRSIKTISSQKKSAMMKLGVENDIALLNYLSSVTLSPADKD

Variants of: B1
Conditions: with rcsb_ecoli rcsB

**Q.** With N715A;Q776A;L780A as the variant, how does the “effect of a mutation on the interaction” value read?
**A.** decreasing interaction
